Among the data in paper PMC3725505 (Scientific Reports, 2013) are dH values, retold here.

Ends that are not written are not given here.

The target of this experiment is Kelch domain of human Keap1 (residues 321-609) (human, UniProt Q14145 321-609). In words: ITC. Background: In ITC the heat of successive injections is recorded.
Kelch domain of human Keap1 (residues 321-609), sequence (Q14145 321-609): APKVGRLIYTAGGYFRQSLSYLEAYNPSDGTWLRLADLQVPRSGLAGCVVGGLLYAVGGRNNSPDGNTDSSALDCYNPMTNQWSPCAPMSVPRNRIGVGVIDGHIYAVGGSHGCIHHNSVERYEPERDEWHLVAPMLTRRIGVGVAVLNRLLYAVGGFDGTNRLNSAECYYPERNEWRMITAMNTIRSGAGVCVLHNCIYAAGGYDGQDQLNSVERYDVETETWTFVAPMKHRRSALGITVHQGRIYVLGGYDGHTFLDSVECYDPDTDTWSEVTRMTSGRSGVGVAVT

For SLEEPHSPETGEKVVAGEVN (also: phosphoserine (S286), position in chain not placed) [WTX pS286 peptide (20-mer, S286 phosphorylated)], the dH is -10.8 ± 0.14 kcal/mol.
